From patent publication US7985736B2, “High throughput screen utilizing newly discovered intramolecular neuronal calcium channel interactions to discover new analgesics” (The John Hopkins University, priority 2004, dated 2011)
Ends that are not written are not given here.

Columns and labels:
I-IIB-YFP = target: T1, I-IIB-YFP (Homo sapiens, UniProt Q00975); assay: Live-cell FRET two-hybrid assay versus I-IIB-YFP in HEK293 cells; type: binding; details: for Kd,EFF / affinity for I-IIB (FRET), in words: relative dissociation constant, HEK293 cells; for FRmax: 1:1 binding-model fit, CFP-tagged peptide versus I-IIB-YFP
T1 construct: I-IIB residues, 357-482; expressed in transfected cells; host or cells: HEK293
Description: To confirm preferential interaction of NTB with I-IIB a live-cell FRET two-hybrid assay was used (Erickson et al., 2003), in which NTB, NTC, I-IIB, and I-IIC were fused to either CFP or YFP, and the resulting fusion constructs expressed pair-wise in mammalian HEK293 cells. Given a Forster distance of ˜50 Å for the CFP/YFP pair (Patterson et al., 2000), the presence of FRET in individual cells would give a strong indication of interpeptide binding in the mammalian intracellular milieu. This indication is generally characterized by a low false-positive rate (Erickson et al., 2003), so that FRET assays provide a useful complement to yeast two-hybrid assays (Allen et al., 1995). […] SCFP (the signal derived from an image obtained with the CFP filter cube) is selective for CFP fluorescence and thereby gives an optical measure of NTB-CFP expression. Analogously, the SYFP signal, derived from preferential excitation and detection of YFP, estimates I-IIB-YFP levels. Finally, the SFRET signal reflects I-IIB-YFP fluorescence stimulated by FRET transfer from NTB-CFP, as well as secondary cross-talk signals. These three signals can be incorporated within a three-cube FRET algorithm to determine the strength of FRET interaction (“FRET ratio,” FR), independently of cross-talk (Erickson et al., 2001). FR adopts a value of unity in the absence of FRET and grows linearly with increasing FRET efficiency (Erickson et al., 2003). FR values for many individual cells are plotted as circles in FIG. 2Eb, with numerous determinations clearly greater than unity. Alternatively, FR values specified by a YFP-photobleaching methodology were also elevated above unity (triangles) (Bastiaens and Jovin, 1996). […] Consistent with yeast two-hybrid assays, then, FRET assays confirmed a selective propensity for NTB and I-IIB segments to associate.
Human m2 muscarinic acetylcholine receptor (AF498916) was engineered to reduce desensitization (Pals-Rylaarsdam and Hosey, 1997). QuikChange (Stratagene, La Jolla, Calif.) introduced cluster mutations, yielding m2R: residues 286-290 (STSVS/AAAVA), residues 307-311 (TVSTS/AVAAA). For FRET assays, base templates were ECFP/EYFP-tagged calmodulin constructs in pcDNA3 (Invitrogen, Carlsbad, Calif.), as described (Erickson et al., 2001). PCR-amplified channel segments or G proteins were substituted for calmodulin via upstream EcoRI and downstream NheI sites, creating in-frame fusions with fluorophore (ECFP/EYFP C-terminal to test molecules). NTC residues, 1-53; I-IIB residues, 357-482; and I-IIC residues, 436-554.
Experiments were performed mostly as previously described (Erickson et al., 2001; Erickson et al., 2003). Briefly, the FRET Ratio (FR) is the fractional increase in YFP emission due to FRET. […] For donor-dequenching analysis, EEFF is calculated as EEFF=^1−CFPpre/CFPpost, where CFPpre and CFPpost are the CFP emissions before/after 3 min YFP photobleaching. FR is determined by FR=(EEFF/[EYFP/ECFP])+1, where EYFP/ECFP is ratio of YFP and CFP molar extinction coefficients through 440 nm excitation bandpass of FRET cube (0.0574). For binding model analysis, Kd,EFF is the effective dissociation constant, related to actual Kd via filter/microscope optical characteristics. […]
Experiments were performed as described previously for the most part (Erickson et al., 2001; Erickson et al., 2003). Specifically, for quantitative analysis, all fluorescence from single cells were isolated through a pinhole in the image plane, and detected by photo-multiplier tube. In all three-cube FRET experiments, CFP levels were below a threshold where spurious, concentration-dependent FRET became significant (Stratton et al., 2004). Similarly, for donor-dequenching experiments, YFP levels were below an analogous threshold. […]

[1] = target: T2, N-type (α1B) Ca2+ channels (Homo sapiens, UniProt Q00975); assay: Whole-cell G/Q analysis and prepulse facilitation of recombinant N-type channels coexpressed with peptide in HEK293 cells; type: cell-based; details: for Effect on G/Q slope (Gmax-Qmax relation), with Gβγ: peptide coexpressed with channels and Gβγ, Gmax after 100 mV prepulse
T2 construct: transferred by EcoRI and Bgl II sites into the full-length α1B construct; expressed in transfected cells; host or cells: HEK293
Description: FIG. 3A illustrates an approach for N-type channels without Gβγ coexpression. Exemplar currents activated quickly and were barely facilitated by strong prepulse depolarization (FIG. 3A, left). The slight residual prepulse facilitation reflects basal endogenous Gβγ activation. To estimate open probability, two intermediary parameters were specified. First, to gauge the number of channels in a cell (Nchannel), the channel gating current at the reversal potential for ionic current were isolated (FIG. 3A, middle left) (Jones et al., 1999). The area under this current yields the maximal gating charge Qmax, where Qmax=Nchannel×qmax, and qmax is the maximal gating charge per channel. Second, Gmax for a given cell, the maximal ionic current conductance determined as the slope of the peak current-voltage relation at depolarized potentials were determined (FIG. 3A, middle right, line). Here and throughout, current-voltage relations were determined after a 100 mV prepulse, which transiently relieves all G protein inhibition (Colecraft et al., 2000), thus eliminating these inhibitory effects in the estimate of Gmax. Accordingly, Gmax=Nchannel×Po,max×g, where Po,max is the maximal channel open probability at saturating de-polarization, and g is the conductance of a single open channel. In combination, then, a plot of Gmax versus Qmax for multiple cells ([…]) would describe a linear relation with slope equal to Po,max×g/qmax. Because g and qmax are unchanged by G protein modulation (Colecraft et al., 2001; Jones et al., 1997; Patil et al., 1996), this slope (G/Q=0.44±0.03 nS/fC) is proportional to Po,max . . . FIG. 3B documents the supporting results for N-type channels coexpressed with Gβγ. Gmax determined after prepulse de-polarization, when plotted against Qmax, specifies an identical slope to that without Gβγ (FIG. 3B, right, G/Q=0.43±0.04 nS/fC). […] Free NTB peptide with α1B channels. Initially, an NTB-CFP peptide was employed to visually confirm expression was coexpressed. […] By contrast, coexpressing channels with NTB-CFP and Gβγ produced remarkable effects (FIG. 3D). […] More telling were small ionic current amplitudes despite gating current magnitudes on par with controls (FIG. 3D, middle panels). Consequently, there was a significant ^w6-fold depression of the Gmax-Qmax plot (FIG. 3D, right). If NTB-CFP were simply chelating Gβγ (FIG. 2C), the G/Q slope would be unchanged from control. Instead, the suppression of G/Q indicates constitutive inhibition of channel opening.
Cells were transiently transfected and cultured in 10 cm plates (Brody et al., 1997). For 2+Ca^2+ channels, 8 μg was used of each of cDNAs of the desired a1, rat brain β2a (Perez-Reyes et al., 1992), and rat brain a^28 (Tomlinson et al., 1993) subunits; along with 2 μg T-antigen cDNA. N-type α1B, human origin (NM000718); L-type α1C, rabbit (Wei et al., 1991) (X15539). Gβγ coexpressed with 4 μg each of Gβ1 (Sugimoto et al., 1985) and Gγ2 (Gautam et al., 1990). For coexpression of N-terminal peptides, channel subunit cDNA reduced to 6 μg, while adding 14 μg peptide cDNA. For receptor experiments, 0.5 μg cDNA for m2R (below) applied with other cDNAs.
Whole-cell current records were made with Axopatch 200B (Axon Instruments, Calif.), 1-3 days posttransfection. Pipets, 1.5-3 MΩ before 60-75% series resistance compensation. Internal solution: 135 mM CsMeSO4, 5 mM CsCl, 10 mM EGTA, 10 mM HEPES, 1 mM MgCl2, and 4 mM MgATP. External solution: 150 mM TEAMeSO4, 10 mM HEPES, 2 mM CaCl2, and 1 mM MgCl2. During constitutive inhibition (or as noted for some chimeras), 20 mM BaCl2 was substituted for 2 mM CaCl2, and the resulting solution was diluted 1.08×. To compare across external solutions, a conversion factor of 3.18 was used. Currents and conductances with 20 mM Ba^2+ were thus scaled×1/3.18 to facilitate uniform comparison of values, as if all data had been collected with 2 mM Ca^2+. When applied, conversion is denoted by asterisk (*). […]

I-II loop of α1B (I-IIB) = target: T3, I-II loop of α1B (I-IIB) (Homo sapiens, UniProt Q00975); assay: Yeast two-hybrid assay, NT peptides versus I-IIB; type: binding; details: NT segment in pGBKT7, I-IIB in pGADT7
T3 construct: I-IIB(357-482)-pGADT7 & lam-pGBKT7; expressed in transfected cells; host or cells: AH109 yeast
Description: (§1) For yeast two-hybrid assays, a PCR fragment encoding one partner was fused, in-frame, with the GAL4 DNA binding domain (BD) in pGBKT7 (Clontech, Palo Alto, Calif.). The other element was fused, in-frame, with the GAL4 activation domain (AD) in pGADT7. For specific residues, see Supplemental Data (section 2). For electrophysiology, NT peptides lacking fluorophore tag were PCR amplified and cloned in pcDNA3. NTB peptide residues, 1-95; NTC residues, […]. Throughout, all segments subject to PCR or QuikChange were verified in their entirety by sequencing.
(§2) The Matchmaker GAL4 Two-Hybrid System 3 was used (Clontech, Palo Alto, Calif.). AH109 yeast were transformed with pGBKT7/pGADT7-based constructs (Yeastmaker Yeast Transformation System 2 kit, Clontech). After 5-8 days, growth on -leucine/-trytophan plates confirmed transformation of both plasmids. If partners interact, GAL4 BD/AD would complex, activating reporter genes (HIS3, ADE2, lacZ, and MEL1), for which assays are detailed in the Supplemental Data (section 2.1).
(§3) As a ‘medium’ stringency assay, expression of the lacZ gene was tested for encoding β-galactosidase, performing a filter lift with application of blue chromogenic substrate (Clontech-Laboratories, 1999). After the filter lift, original plates were re-grown for 2-3 days at 30° C. Filter paper was then used to replicate colonies onto a high stringency plate (-adenine/-histidine/-leucine/-trytophan). These plates were then incubated at 30° C. for 5-8 days. Survival on high stringency plates indicates production of both adenine and histidine, from transcription of the ADE2 and HIS3 genes, respectively. The percentage of colonies that turned blue in the filter lift assay, along with the percentage of colonies that survived on high stringency plates, was recorded for each pairing. Experiments were repeated at least three times. False positives were controlled for by testing each segment in pGBKT7 against empty pGADT7, and each segment in pGADT7 against lamin C in pGBKT7 (lamin C interacts with few proteins). Average sum of these backgrounds was subtracted from B to produce the net interaction parameter ΔB (FIG. 2).

Gβ1 = target: T4, Gβ1 (Bos taurus, UniProt P62871); assay: Yeast two-hybrid assay, channel fragments versus Gβ1; type: binding; details: Gβ1 in pGADT7, channel fragment in pGBKT7
T4 construct: expressed in transfected cells; host or cells: AH109 yeast
Description: as §1, §2
as §3, with “Average sum of these backgrounds was subtracted from B to produce the net interaction parameter ΔB (FIG. 2).” left out

T1 sequence (Q00975 357-482): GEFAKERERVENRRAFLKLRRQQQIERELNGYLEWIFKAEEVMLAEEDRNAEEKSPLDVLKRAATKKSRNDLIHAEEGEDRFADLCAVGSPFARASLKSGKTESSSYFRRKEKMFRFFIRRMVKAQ
T2 sequence (Q00975 whole entry, other chains not shown): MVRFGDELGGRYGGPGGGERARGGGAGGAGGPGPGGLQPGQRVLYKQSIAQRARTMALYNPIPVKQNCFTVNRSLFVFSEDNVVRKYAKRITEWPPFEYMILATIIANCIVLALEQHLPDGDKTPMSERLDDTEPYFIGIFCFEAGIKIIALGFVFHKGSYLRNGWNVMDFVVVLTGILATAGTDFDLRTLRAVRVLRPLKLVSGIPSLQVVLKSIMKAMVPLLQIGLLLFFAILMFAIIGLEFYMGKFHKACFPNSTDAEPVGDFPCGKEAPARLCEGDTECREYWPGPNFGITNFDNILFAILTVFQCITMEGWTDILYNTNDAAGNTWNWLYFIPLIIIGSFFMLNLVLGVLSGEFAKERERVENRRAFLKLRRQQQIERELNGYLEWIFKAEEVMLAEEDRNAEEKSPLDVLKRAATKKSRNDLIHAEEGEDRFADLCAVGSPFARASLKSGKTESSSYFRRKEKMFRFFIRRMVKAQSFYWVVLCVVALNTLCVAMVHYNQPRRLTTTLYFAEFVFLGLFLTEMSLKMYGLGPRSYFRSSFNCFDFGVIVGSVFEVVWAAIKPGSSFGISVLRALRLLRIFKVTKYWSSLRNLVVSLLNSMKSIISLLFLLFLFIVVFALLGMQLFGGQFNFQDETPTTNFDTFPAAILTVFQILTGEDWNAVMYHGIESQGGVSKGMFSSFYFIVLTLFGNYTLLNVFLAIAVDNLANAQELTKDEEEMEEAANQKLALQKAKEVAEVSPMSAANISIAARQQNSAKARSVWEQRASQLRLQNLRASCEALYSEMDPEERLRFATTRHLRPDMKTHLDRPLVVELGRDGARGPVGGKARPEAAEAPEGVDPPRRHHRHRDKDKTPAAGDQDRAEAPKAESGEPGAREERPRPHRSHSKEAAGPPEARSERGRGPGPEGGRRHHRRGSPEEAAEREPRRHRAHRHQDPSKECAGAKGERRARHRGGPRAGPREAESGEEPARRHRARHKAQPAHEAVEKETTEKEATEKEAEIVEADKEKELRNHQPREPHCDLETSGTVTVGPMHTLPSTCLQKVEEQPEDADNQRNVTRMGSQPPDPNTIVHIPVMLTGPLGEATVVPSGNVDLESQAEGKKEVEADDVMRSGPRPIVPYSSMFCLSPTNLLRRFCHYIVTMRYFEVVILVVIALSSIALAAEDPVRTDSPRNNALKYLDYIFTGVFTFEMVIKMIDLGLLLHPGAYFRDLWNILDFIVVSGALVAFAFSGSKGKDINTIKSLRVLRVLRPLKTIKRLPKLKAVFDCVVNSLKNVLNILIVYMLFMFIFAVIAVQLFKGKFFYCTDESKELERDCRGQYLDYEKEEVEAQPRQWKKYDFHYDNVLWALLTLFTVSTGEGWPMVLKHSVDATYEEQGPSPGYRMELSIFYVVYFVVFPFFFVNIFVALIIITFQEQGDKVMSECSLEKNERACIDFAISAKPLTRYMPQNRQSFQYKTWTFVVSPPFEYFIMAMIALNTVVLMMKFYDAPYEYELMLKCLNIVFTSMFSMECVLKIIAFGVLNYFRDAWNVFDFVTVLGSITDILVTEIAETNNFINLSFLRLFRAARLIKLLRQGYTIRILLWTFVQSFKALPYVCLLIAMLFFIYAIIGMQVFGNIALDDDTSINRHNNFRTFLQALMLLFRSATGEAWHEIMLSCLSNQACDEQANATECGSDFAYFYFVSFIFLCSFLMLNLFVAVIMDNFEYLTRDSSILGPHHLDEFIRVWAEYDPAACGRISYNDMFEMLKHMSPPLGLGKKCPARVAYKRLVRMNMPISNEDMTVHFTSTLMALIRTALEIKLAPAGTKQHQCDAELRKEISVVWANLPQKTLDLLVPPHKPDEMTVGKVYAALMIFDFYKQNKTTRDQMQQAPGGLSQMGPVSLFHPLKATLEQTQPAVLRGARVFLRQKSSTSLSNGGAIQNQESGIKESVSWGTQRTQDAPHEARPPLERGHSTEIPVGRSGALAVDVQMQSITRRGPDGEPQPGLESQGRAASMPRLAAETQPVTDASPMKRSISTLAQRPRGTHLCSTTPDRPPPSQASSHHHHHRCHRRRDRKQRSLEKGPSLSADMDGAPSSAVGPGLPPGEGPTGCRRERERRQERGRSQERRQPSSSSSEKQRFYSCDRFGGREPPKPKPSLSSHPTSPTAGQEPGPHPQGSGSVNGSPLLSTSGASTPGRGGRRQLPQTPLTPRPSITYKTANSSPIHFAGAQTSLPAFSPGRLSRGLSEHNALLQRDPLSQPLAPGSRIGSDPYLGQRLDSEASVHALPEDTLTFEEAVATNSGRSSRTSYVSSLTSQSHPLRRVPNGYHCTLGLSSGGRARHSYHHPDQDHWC
T2 sequence (P54290 25-944 partner limits assumed, other chains not shown): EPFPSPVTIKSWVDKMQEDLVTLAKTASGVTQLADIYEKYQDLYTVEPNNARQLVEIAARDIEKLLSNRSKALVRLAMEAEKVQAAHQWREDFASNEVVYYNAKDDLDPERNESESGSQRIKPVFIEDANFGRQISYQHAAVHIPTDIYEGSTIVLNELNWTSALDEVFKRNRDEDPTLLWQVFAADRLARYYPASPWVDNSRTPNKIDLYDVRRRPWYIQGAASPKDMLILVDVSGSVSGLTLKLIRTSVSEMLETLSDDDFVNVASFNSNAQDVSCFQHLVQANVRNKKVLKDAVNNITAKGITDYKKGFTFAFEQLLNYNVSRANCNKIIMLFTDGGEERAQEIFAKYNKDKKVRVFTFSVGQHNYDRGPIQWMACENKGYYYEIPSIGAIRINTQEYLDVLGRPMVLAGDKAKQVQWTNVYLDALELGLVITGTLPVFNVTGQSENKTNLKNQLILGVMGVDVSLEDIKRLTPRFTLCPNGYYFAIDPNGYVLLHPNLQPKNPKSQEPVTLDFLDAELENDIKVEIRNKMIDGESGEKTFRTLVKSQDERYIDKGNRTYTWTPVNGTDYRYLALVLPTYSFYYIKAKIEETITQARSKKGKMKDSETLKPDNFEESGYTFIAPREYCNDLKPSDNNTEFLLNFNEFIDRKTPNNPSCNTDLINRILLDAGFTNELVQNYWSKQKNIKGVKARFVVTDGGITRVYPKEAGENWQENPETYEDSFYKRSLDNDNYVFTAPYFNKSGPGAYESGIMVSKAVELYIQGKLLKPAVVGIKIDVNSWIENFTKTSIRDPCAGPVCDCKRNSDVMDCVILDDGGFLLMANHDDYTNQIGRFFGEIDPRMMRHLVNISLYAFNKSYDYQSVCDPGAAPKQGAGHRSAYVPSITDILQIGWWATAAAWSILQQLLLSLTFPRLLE
T2 sequence (P54290 945-1091 partner limits assumed, other chains not shown): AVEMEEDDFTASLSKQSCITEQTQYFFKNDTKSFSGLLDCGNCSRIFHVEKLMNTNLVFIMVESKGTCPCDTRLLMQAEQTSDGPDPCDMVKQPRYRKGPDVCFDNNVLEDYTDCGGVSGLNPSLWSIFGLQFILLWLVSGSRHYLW
T3 sequence (Q00975 357-482): as the sequence (Q00975 357-482) above
T4 sequence (P62871 whole entry, the tested form may be a part): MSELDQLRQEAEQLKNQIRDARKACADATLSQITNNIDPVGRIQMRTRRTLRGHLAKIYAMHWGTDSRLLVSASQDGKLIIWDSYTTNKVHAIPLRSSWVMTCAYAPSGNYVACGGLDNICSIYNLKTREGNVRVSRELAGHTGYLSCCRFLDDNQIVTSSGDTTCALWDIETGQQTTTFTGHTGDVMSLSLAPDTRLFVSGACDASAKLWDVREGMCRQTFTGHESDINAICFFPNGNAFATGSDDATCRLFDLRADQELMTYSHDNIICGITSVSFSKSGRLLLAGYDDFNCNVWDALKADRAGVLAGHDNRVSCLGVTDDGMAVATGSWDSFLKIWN

Molecule | Kd,EFF / affinity for I-IIB (FRET), in words (I-IIB-YFP) | Effect on G/Q slope (Gmax-Qmax relation), with Gβγ [1] | Interaction with I-IIB (yeast two-hybrid, ΔB) (I-II loop of α1B (I-IIB)) | FRmax (I-IIB-YFP) | further results
NTB (1-44)—CFP: NTB (1-44) fused to CFP (MVRFGDELGGRYGGPGGGERARGGGAGGAGGPGPGGLQPGQRVL; also: fused to CFP) | no detectable association | – | – | – | –
NTB (45-95): NTB subdomain, residues 45-95 (SEQ ID NO.: 2) (KQSIAQRARTMALYNPIPVKQNCFTVNRSLFVFSEDNVVRKYAKRITEWP; listed as Homo sapiens) | – | depressed Gmax-Qmax relations to the same extent as did full NTB | Robust ΔB values | – | –
NTB (56-95)—CFP: NTB (56-95) fused to CFP (MALYNPIPVKQNCFTVNRSLFVFSEDNVVRKYAKRITEWP; also: fused to CFP) | affinity equivalent to that of full NTB | – | – | 2.44 | –
NTB (Δ45-55): NTB peptide lacking residues 45-55 (protein, left off: small tags and cut ends) MVRFGDELGGRYGGPGGGERARGGGAGGAGGPGPGGLQPGQRVLMALYNPIPVKQNCFTVNRSLFVFSEDNVVRKYAKRITEWP | – | inter-mediate inhibition | partially attenuated association | – | –
NTB [1-55]: residues 1-55 of NTB (protein) MKLLSSIEQACDICRLKKLKCSKEKPKCAKCLKNNWECRYSPKTKRSPLTRAHLTEVESRLERLEQLFLLIFPREDLDMILKMDSLQDIKALLTGLFVQDNVNKDAVTDRLASVETDMPLTLRQHRISATSSSEESSNKGQRQLTVSMVRFGDELGGRYGGPGGGERARGGGAGGAGGPGPGGLQPGQRVLYKQSIAQRART | – | – | – | – | Interaction with Gβ1 (yeast two-hybrid) (Gβ1): interacted with Gβ1
NTB-CFP: NTB peptide fused to CFP (protein, left off: large carriers) MVRFGDELGGRYGGPGGGERARGGGAGGAGGPGPGGLQPGQRVLYKQSIAQRARTMALYNPIPVKQNCFTVNRSLFVFSEDNVVRKYAKRITEWP | comparable to that for an apoCaM/IQ segment interaction | – | – | 3.66 | Effect on G/Q slope and currents, without Gβγ ([1]; peptide coexpressed with channels, absent Gβγ): no differences from control
